From US20120172298A1, “GLP-1 AND FGF21 COMBINATIONS FOR TREATMENT OF DIABETES TYPE 2” (Novo Nordisk A/S, priority 2009, published 2012)

Columns and labels:
[1] = system: rat insulinoma beta-cells (INS-1); assay: Cell viability of INS-1 beta-cells exposed to free fatty acids (MTT assay); format: cell-based; details: 48 hours, FGF21 compound = F1 50 nM, GLP-1 compound = G1 50 nM, mean +/- SEM
Procedure: (§1) This ex vivo example investigates the influence of FGF21 and GLP-1 compounds on FFA (free fatty acid) induced apoptosis of rat insulinoma beta-cells (INS-1).
(§2) Compound F1 (Prospec, cat. no. CYT-474) was used as the FGF21 compound, and compound G1 was used as the GLP-1 compound.
(§3) INS-1 cells were seeded in 96-well plates (50000 cells/well) and incubated overnight in cell medium (RPMI 1640 medium (Gibco, cat. no. 61870-010), supplemented with 10% FCS (Gibco, cat. no. 10085-140), 1% Pen/Strep (Gibco, cat. no. 15140-114) and 0.5 ml beta-mercaptoethanol (Gibco, cat. no. 31350-010 (50 mM)). The FGF21 compound (50 nM) and the GLP-1 compound (50 nM) were added to the cells 1 hour before the cells were to be exposed to FFA. The FFA's were prepared as follows: Stock solutions of palmitic acid (Sigma P5585) and oleic acid (Sigma 01383) of 1M in DMSO were mixed 1:2 and heated to 60 degree Celsius. The FFA mix was then diluted 10 times in 0.1M NaOH. This mixture was then further diluted in cell medium to yield a FFA concentration of 1 mM. The FFAs were then added to the cells to a final concentration of 0.35 mM. […]

[2] = system: rat insulinoma beta-cells (INS-1); assay: FFA induced apoptosis of INS-1 beta-cells (Caspase-3/7 assay); format: cell-based; details: 48 hours, FGF21 compound = F1 50 nM, GLP-1 compound = G1 50 nM, mean +/- SEM
Procedure: as §1, §2, §3

B1: Met-FGF21_human (protein, listed as Homo sapiens)
chain: HPIPDSSPLLQFGGQVRQRYLYTDDAQQTEAHLEIREDGTVGGAADQSPESLLQLKALKPGVIQILGVKTSRFLCQRPDGALYGSLHFDPEACSFRELLLEDGYNVYQSEAHGLPLHLPGNKSPHRDPAPRGPARFLPLPGLPPALPEPPGILAPQPPDVGSSDPLSMVGPSQGRSPSYAS
modifications: N-terminal Met; mat_peptide (1)..(181); DISULFID (75)..(93)
- Cell viability (MTT assay, A550) ([1]; FFA 0.00 mM): 1.19 +/− 0.05
- Cell viability (MTT assay, A550) ([1]; FFA 0.35 mM): 0.28 +/− 0.01
- Apoptosis (Caspase 3/7 assay, fluorescense) ([2]; FFA 0.00 mM): 1827 +/− 22
- Apoptosis (Caspase 3/7 assay, fluorescense) ([2]; FFA 0.35 mM): 33278 +/− 1254
